Patent publication US20110275122A1 (Amgen, published 2011)

T1: c-mpl receptor (Homo sapiens (Human), UniProt P40238 26-491, The MPL used for panning was biotinylated; the biotin site is not stated and is not carried by the letters.)
T1 construct: also called TPO receptor
T1 sequence: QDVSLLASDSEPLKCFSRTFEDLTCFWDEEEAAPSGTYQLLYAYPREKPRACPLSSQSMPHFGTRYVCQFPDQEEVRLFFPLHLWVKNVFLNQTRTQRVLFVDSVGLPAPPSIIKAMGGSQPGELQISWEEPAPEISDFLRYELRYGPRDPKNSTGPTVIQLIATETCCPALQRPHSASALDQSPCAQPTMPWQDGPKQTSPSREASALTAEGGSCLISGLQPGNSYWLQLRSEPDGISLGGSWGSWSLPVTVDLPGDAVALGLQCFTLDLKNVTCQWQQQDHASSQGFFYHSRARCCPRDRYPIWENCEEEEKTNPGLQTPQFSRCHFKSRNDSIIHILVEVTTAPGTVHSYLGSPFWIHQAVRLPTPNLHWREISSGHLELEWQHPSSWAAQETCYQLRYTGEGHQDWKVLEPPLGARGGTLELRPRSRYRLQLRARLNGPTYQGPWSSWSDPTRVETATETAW

B1: SEQ ID NO: 278 (peptide)
peptide: IEGRTWQLYFHAKEEHS
B2: SEQ ID NO: 266 (peptide)
peptide: IEGPTFKQWQACLHSHS
B3: SEQ ID NO: 250 (peptide)
peptide: IEGRWPPPQFPVTQQHSLERVGRPPPSVELPRPTFVCAQIEGPTFKQWQRCLREHS
B4: SEQ ID NO: 291 (peptide)
peptide: IEGPTLHEWLRWLRQHS
B5: SEQ ID NO: 311 (peptide)
peptide: IEGWTRRQWLAARA
B6: SEQ ID NO: 302 (peptide)
peptide: IEGRHYQKWPARRLGHS
B7: SEQ ID NO: 281 (peptide)
peptide: IEGWWWQFYAHPQGDHS
B8: SEQ ID NO: 300 (peptide)
peptide: IEGWSWQFYAHPKGDHS
B9: SEQ ID NO: 317 (peptide)
peptide: IEGWTWQFYAHPQGDHS
B10: SEQ ID NO: 289 (peptide)
peptide: IEGWPWQFYAHPQGDHS
B11: SEQ ID NO: 256 (peptide)
peptide: PSICAQIEGPTFKQWQTCMRAHS
B12: SEQ ID NO: 275 (peptide)
peptide: IEGPTFKQWQYWRAKHS
B13: SEQ ID NO: 306 (peptide)
peptide: IEGEIWAGPGAARA
B14: SEQ ID NO: 285 (peptide)
peptide: IEGPTFEQWQHWRRGHS
B15: SEQ ID NO: 297 (peptide)
peptide: IEGWTWQFYALPRGDHS
B16: SEQ ID NO: 313 (peptide)
peptide: IEGPTFKQWQAMRRHS
B17: SEQ ID NO: 274 (peptide)
peptide: IEGPTFKQWQKWRKTHS
B18: SEQ ID NO: 272 (peptide)
peptide: IEGQSWLRRLHWKEEHS
B19: SEQ ID NO: 305 (peptide)
peptide: IAQVRMLGRFTLLVLSRARAASTQLSFQHSICAQIEGGAQTQWDAARA
B20: SEQ ID NO: 276 (peptide)
peptide: IEGPTFKQWQVRQKTHS
B21: SEQ ID NO: 254 (peptide)
peptide: IEGRWPPPQFPVTEHHSLERVGRRPPNAQMPQSIFICGQNEGPTFQYCQRCLREHS
B22: SEQ ID NO: 269 (peptide)
peptide: IEGPTFKQWQWLRRHHS
B23: SEQ ID NO: 328 (peptide)
peptide: IEGPTFKQWQMLRRHHS
B24: SEQ ID NO: 249 (peptide)
peptide: IEGEPVSDGKRRPRVHSLERVDAVHAKVGPSICAQIEGPTFKQWQKCKRAHS
B25: SEQ ID NO: 284 (peptide)
peptide: IEGHGSQKPTAARALESTSSLTTRTRTTSICAQQDMVGPTIRQWLAARACI
B26: SEQ ID NO: 288 (peptide)
peptide: IEGYWWYASWAARA
B27: SEQ ID NO: 268 (peptide)
peptide: IEGPSFTPWFHERRSHS
B28: SEQ ID NO: 277 (peptide)
peptide: IEGWSWQFYFHAKGDHS
B29: SEQ ID NO: 255 (peptide)
peptide: IEGWWWQFYFHAKEDHS
B30: SEQ ID NO: 262 (peptide)
peptide: IEGWWWQFYFHPKEDHS
B31: SEQ ID NO: 264 (peptide)
peptide: IEGWTWQFYVHPKGDHS
B32: SEQ ID NO: 247 (peptide)
peptide: IEGPTFKQWQKCRNMHS
B33: SEQ ID NO: 258 (peptide)
peptide: IEGPTFKQWQGRSKRHS
B34: SEQ ID NO: 253 (peptide)
peptide: IEGPTFKQWQRWRKMHS
B35: SEQ ID NO: 310 (peptide)
peptide: IEGWNPWRGAASRV
B36: SEQ ID NO: 304 (peptide)
peptide: IEGQEPTRLRLQMDRHS
B37: SEQ ID NO: 271 (peptide)
peptide: IEGPTFKQWQVWRNRHS
B38: SEQ ID NO: 294 (peptide)
peptide: IEGEALVFWWRVRGGHS
B39: SEQ ID NO: 263 (peptide)
peptide: IEGPTFKQWQKSRTKHS
B40: SEQ ID NO: 246 (peptide)
peptide: IEGQSWEFENDRVPAHSLERVLLLRRVPTEPSGPSICAQIEGPTFKQWQECINGHS
B41: SEQ ID NO: 286 (peptide)
peptide: IEGWIWRQWLAARA
B42: SEQ ID NO: 290 (peptide)
peptide: IEGWVWCQWLAARA
B43: SEQ ID NO: 301 (peptide)
peptide: IEGWVWRQWLAARA
B44: SEQ ID NO: 287 (peptide)
peptide: IEGWIWRPWLAARA
B45: SEQ ID NO: 296 (peptide)
peptide: IEGWVWWPWLAARA
B46: SEQ ID NO: 314 (peptide)
peptide: IEGMVKLGVIRLLVL
B47: SEQ ID NO: 307 (peptide)
peptide: IEGEALVFWWAARA
B48: SEQ ID NO: 248 (peptide)
peptide: IEGPTFKQWQKLRRVHS
B49: SEQ ID NO: 261 (peptide)
peptide: IEGPTFKQWQKLRRSHS
B50: SEQ ID NO: 251 (peptide)
peptide: IEGPTFKQWQRWRLLHS
B51: SEQ ID NO: 270 (peptide)
peptide: IEGWWWQFYVHAKGDHS
B52: SEQ ID NO: 308 (peptide)
peptide: IEGSYRERQQAARA
B53: SEQ ID NO: 265 (peptide)
peptide: IEGPTFKQWQAARMHHS
B54: SEQ ID NO: 280 (peptide)
peptide: IEGWPRQLYAHAKEDHS
B55: SEQ ID NO: 303 (peptide)
peptide: IEGFVGTVDWRQGRPHS
B56: SEQ ID NO: 260 (peptide)
peptide: IEGWWWQLYFHAKDDHS
B57: SEQ ID NO: 252 (peptide)
peptide: IEGPTFKQWQAWRKKHS
B58: SEQ ID NO: 259 (peptide)
peptide: IEGWPWQLYVHPEGEHS
B59: SEQ ID NO: 315 (peptide)
peptide: IEGPTFKQWQAWRRWHS
B60: SEQ ID NO: 299 (peptide)
peptide: IEGPTLRQRLAARA
B61: IEGPTLRQWLAARA (positive control) (peptide)
peptide: IEGPTLRQWLAARA
notes: Positive control of the phage-ELISA
B62: SEQ ID NO: 257 (peptide)
peptide: IEGYVGGPYEQTNSLERVPPTLAWKYGPRTPSICAQIEGPTFKQWQQCLSDHS

Target: T1, c-mpl receptor
Experiment: phage-ELISA

Binder | Relative activity
B1 | 102
B2 | 114
B3 | 149
B4 | 78.3
B5 | 33.3
B6 | 52
B7 | 95
B8 | 52.6
B9 | 24.2
B10 | 80.3
B11 | 133
B12 | 105
B13 | 46.5
B14 | 91.5
B15 | 63.2
B16 | 28.4
B17 | 105
B18 | 108
B19 | 47.4
B20 | 105
B21 | 137

Binder | Relative activity
B22 | 109
B23 | 12.5
B24 | 150
B25 | 92.1
B26 | 80.4
B27 | 110
B28 | 104
B29 | 136
B30 | 124
B31 | 122
B32 | 164
B33 | 131
B34 | 144
B35 | 33.9
B36 | 48.3
B37 | 108
B38 | 73.9
B39 | 124
B40 | 173
B41 | 91.4
B42 | 79.1

Binder | Relative activity
B43 | 52.1
B44 | 83.3
B45 | 63.5
B46 | 28.3
B47 | 40.3
B48 | 155
B49 | 125
B50 | 149
B51 | 109
B52 | 35.2
B53 | 122
B54 | 95.6
B55 | 49.8
B56 | 126
B57 | 146
B58 | 129
B59 | 28.1
B60 | 57.3
B61 | 150
B62 | 131
